Earlier results, collected in article PMC12291208.

How the values were obtained:
Lys92 = Lys92 (UniProt position 174, RGLAYKYADGK); conditions: folded protein; Lys92 buried, Lys118 solvent exposed
Lys118 = Lys118 (UniProt position 200, YVYKPKNTHEQ); conditions: folded protein; Lys92 buried, Lys118 solvent exposed

| Substance | pKa (Lys92) | pKa (Lys118) |
| --- | --- | --- |
| Staphylococcal nuclease (SNase) I92K variant (Staphylococcus aureus (inferred from 'staphylococcal'); I92K) | 5.2 |  |
| Staphylococcal nuclease (SNase) N118K variant (Staphylococcus aureus (inferred from 'staphylococcal'); N118K) |  | 10.4 |
